Here are results for one substance from paper PMC4729596.

This assay concerns the target VC-Vam7 (yeast) (UniProt P32912). Description: split reporter.
UniProt P32912, sequence (P32912 whole entry): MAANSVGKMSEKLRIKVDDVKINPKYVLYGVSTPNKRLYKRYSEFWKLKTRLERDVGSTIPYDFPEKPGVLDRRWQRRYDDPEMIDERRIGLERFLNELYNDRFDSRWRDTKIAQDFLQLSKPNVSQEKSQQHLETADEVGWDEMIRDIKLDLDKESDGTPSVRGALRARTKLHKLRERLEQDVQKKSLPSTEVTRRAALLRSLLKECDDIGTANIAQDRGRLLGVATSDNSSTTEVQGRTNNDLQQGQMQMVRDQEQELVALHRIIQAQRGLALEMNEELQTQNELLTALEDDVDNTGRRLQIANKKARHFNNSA

On to “VN-Atg11 (from UniProt Q12527 1-1178) (natural protein)”, for which the percent of cells with a vYFP signal is > 90 % of cells.
